Reference: the supplement of paper PMC12042874
± gives the uncertainty stated by the source.

Experiment: amyloid nucleation score (Sup35N fusion, yeast selection) (log enrichment); library NNK2; higher = more nucleation; inactive = no reads after selection
Procedure, shortened: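 In psi-negative yeast, Sup35N fusions carrying peptides of 20 random codons were induced with 100 μM copper sulfate for 24 hours. The cells then grew 7 days at 30°C on medium lacking adenine and uracil, and plasmid inserts from input and output were Illumina-sequenced, excluding sequences with under 100 input reads. Nucleation score is the DiMSum log enrichment of output over input reads, centred on the mode score of non-aggregating sequences.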

| Substance | amyloid nucleation score |
| --- | --- |
| SYHFQDLW | -0.461 ± 0.25 |
| CPSVSSRSRELSLLTDQEVI | 0.812 ± 0.4 |
| MGLSTRLH | inactive |
| HGMYKTG | 2.54 ± 0.11 |
| QDNFQFFAVSMRGCDCTGVS | 6.96 ± 0.048 |
| VKMLSLKSIHLSYFCECASW | 0.28 ± 0.21 |
| DSSYG | 0.285 ± 0.74 |
| FRPHQVV | inactive |
| WGEVRLCESMVCCLGRIQGR | 4.1 ± 0.063 |
| YFYCRYYMNRWNYYL | -0.396 ± 0.33 |
| AVATGNTCSPVSVRKSLGQS | 1.87 ± 0.13 |
| CYVSFCKGA | 0.049 ± 0.76 |
| GSLVQNVFTMDGGDYHMR | 0.307 ± 0.27 |
| LCISCNVGLGSIKVRNNAFA | 6.12 ± 0.042 |
| YWKVCRM | 0.356 ± 0.74 |
| ELNLNS | 0.695 ± 0.36 |
| ALPCRLISFFALVGWIVG | -0.088 ± 0.49 |
| RLSRCL | 4.23 ± 0.055 |
| WFMEILFVV | -0.383 ± 0.26 |
| ALRYVMRLY | 2.53 ± 0.11 |
| CSLFLWGLMDLLV | inactive |
| AHLARGGWFVKRCYSGGDVF | -0.087 ± 0.76 |
| IGSVGTPWE | -0.042 ± 0.45 |
| FNDHWARRRRDFVNIWFWSE | -0.047 ± 1.1 |
| ICFIVSSFRY | 2.58 ± 0.23 |
| LLLLMWALGLLENLTTLHGF | -0.257 ± 0.47 |

| Substance | amyloid nucleation score |
| --- | --- |
| LNGLDPSNAHMIYYLYTSYL | -1.25 ± 0.54 |
| VTGRAFNVTHGDAVEI | 0.299 ± 0.39 |
| ISFYYWLARPCLFVSKIEGA | 3.54 ± 0.062 |
| RSTLDQRRFGNRF | 0.063 ± 1.1 |
| SSYPFNDPEMLG | -1.09 ± 0.33 |
| TLYFYFRLSW | 0.276 ± 0.8 |
| SWGFI | -2.19 ± 0.62 |
| VSMAIFGSSNILYSIRSLLE | 4.37 ± 0.082 |
| CWDEQLQPS | 0.744 ± 0.45 |
| LWDEVAGVAVKI | 3.3 ± 0.1 |
| VTLNTVDFPTGICKSSGARW | -0.236 ± 0.42 |
| SAFSVSYTKSAFSARTVDIK | -0.948 ± 0.33 |
| VRTPEYSLHLVAS | -0.02 ± 0.61 |
| LFHFGNCSRIRGWGICVTSL | -0.506 ± 0.55 |
| TLDVGLGAAQCVIGISGWYE | 1.1 ± 0.15 |
| CHDMSSACLYSVGWS | inactive |
| VCDVDTNVVTSNWTSCLFRK | inactive |
| PFSFRLSGINSPPVISVA | -1.16 ± 0.41 |
| CNTCLLSFG | 0.814 ± 0.25 |
| GDKVACKEIWTVNVYVNTLG | 0.229 ± 0.26 |
| LFLQGRNQLDTHWFCPACPM | -0.727 ± 0.55 |
| NLMGFCYVSAEWVFGGRPGY | 1.97 ± 0.14 |
| TPVSCFTCRQCLVTGLHTLR | 0.466 ± 0.26 |
| PLYSPRVCFFGYAPKVCITH | -0.724 ± 0.4 |
| PQNSIPCFAIFTWAWSMKKL | inactive |
| SIANYGFVLNNHIRFFRSSG | 2.32 ± 0.15 |

| Substance | amyloid nucleation score |
| --- | --- |
| VTIER | 0.319 ± 0.33 |
| DGALNTFIDYGLSTAIKKIN | inactive |
| SSCVRLDELCAMMSMSWESQ | 1.26 ± 0.38 |
| ERNSWISLIQTF | -0.693 ± 0.39 |
| YTLDMIIELSLDDGGYVVWG | 4.756 ± 0.04 |
| RSSWPTLKQGCSKSRQIWRA | 0.182 ± 0.3 |
| YIGPNKFLKQFDCLINFFLT | 3.08 ± 0.097 |
| RVRERIQIYLLLSGQDQFKM | 3.6 ± 0.14 |
| ISRIIVPDSRLAYGEWFEIV | 1.53 ± 0.58 |
| MKPSSSLTYLE | -0.11 ± 0.5 |
| YGKADCPSLGVYMRL | 2.25 ± 0.15 |
| RNSPVSLDVVSI | 0.046 ± 0.49 |
| VKLHSVSYLIFLL | 4.8 ± 0.11 |
| MSNRVCCNYVGSHVRYCVSK | 4.913 ± 0.048 |
| DPGSRDMIG | 0.043 ± 1 |
| RLKVIFRSLFHLLRAVRGSH | -1.36 ± 0.75 |
| YAMCTWSV | 1.88 ± 0.13 |
| SVMIWIIASNIDILSVVFRL | -0.573 ± 1.1 |
| GTARDGRYSSMKVSDRYFVR | inactive |
| NWVLVVGSSWEFLSGSASGG | 2.18 ± 0.17 |
| IYYGGLKHARVPVTRFEGSP | 3.87 ± 0.098 |
| TVHRLRNVCLL | 2.51 ± 0.25 |
| SIFFC | 2.09 ± 0.09 |
| YKVLTSPRFKEDPFLYGCWI | -0.353 ± 0.53 |
| GLCSIYNWYLVFQVIRTLSW | 2.41 ± 0.14 |
| TAAGLFISNNHMNYFDAIAY | -1.09 ± 0.78 |

| Substance | amyloid nucleation score |
| --- | --- |
| VLVKSLMRENVPCPPLGTLS | 0.942 ± 0.36 |
| RLSVTLL | -0.157 ± 0.24 |
| WSTASSVLIICIQRFF | inactive |
| VTIYRGVRFGTFLPCRVRYG | 1.48 ± 0.26 |
| FNALTVDQTVHSYGVYADLP | 0.191 ± 0.21 |
| TKATRINEGLLNLYALFGGK | 0.974 ± 0.17 |
| SYVCRYITVPGFDTN | 4.76 ± 0.08 |
| RVMYGGCFHSRKRASVPYLY | -0.405 ± 0.76 |
| WKQEYFG | -0.508 ± 0.63 |
| QNACH | -0.011 ± 1.1 |
| VKVGEISCFNFKEYTFLLTD | inactive |
| RHDLWAPRTERMMVYMCTAA | 0.544 ± 0.26 |
| ATESIMLLPYNTDPSMTWLT | 0.227 ± 0.55 |
| WGWKYMLEELN | -0.177 ± 0.55 |
| TMLTFG | -0.913 ± 0.76 |
| GVNRAWL | 3.35 ± 0.06 |
| ASGKWHSCAGSGDYM | -0.453 ± 0.33 |
| YSYVIWYMHHCFWLNLRKFM | 0.979 ± 0.67 |
| IFIPSFWGIFTIPM | -1.01 ± 1 |
| IRKCRSHSFSRFRRHFS | 0.285 ± 1 |
| LVFNVLNRFKSARSSRCAGS | -1.14 ± 0.61 |
| YCNNYG | -2.65 ± 0.75 |
| GSKSCRDYNIKFIYDRYFMG | inactive |
| MQTICSN | -1.13 ± 1 |
| IPNVPCIRGVSYSDFFTSSY | -0.044 ± 0.61 |
| ARCNCL | 0.559 ± 0.49 |

| Substance | amyloid nucleation score |
| --- | --- |
| TMRFLVGFCLTNWDNLNASC | 3.67 ± 0.05 |
| MEKARTGGGSVTHDGKCARW | 0.649 ± 0.22 |
| ASSNLNDTYITIDADSVHRR | 0.033 ± 0.49 |
| RFTFFAGAS | 0.367 ± 0.21 |
| RGWCFWASPGRR | 0.2 ± 0.26 |
| FCFLKFCMLHRLLVFLWRQF | 1.54 ± 0.11 |
| CIFGMDKHTYQHVVHSTLLV | 0.181 ± 0.16 |
| FYSGKRARMGGEGGEKTPRS | -1.2 ± 0.48 |
| GAELPKYESRLPFLSAGLRQ | -0.048 ± 0.53 |
| MGPKSRFRSTRNGVKYL | -0.571 ± 0.64 |
| CLPETLVDFWFKAHDAFNFV | inactive |
| WWHLKTQKSP | -0.09 ± 0.44 |
| VMYRCSRSALNLHVRRNWRW | 0.455 ± 0.65 |
| VRFNGLVR | inactive |
| NLYTYAVKAVSYSMTGVFIS | -0.114 ± 1 |
| VYTLIIDW | -1.44 ± 0.78 |
| CWGGISSALRQ | 0.698 ± 0.8 |
| TYGHDKLRVSNIEHQLPGRA | 0.306 ± 0.64 |
| VPSQRNWFC | 0.007 ± 0.63 |
| SIFLREDVVFSDLLRWFR | 5.572 ± 0.045 |
| TYFVVGDSLSVIFSGRNWGV | 5.408 ± 0.043 |
| LYLHKDHIDVNFNHMVKGLT | -0.263 ± 1.1 |
| CAWFLTRWTVLSDLEGFY | -1.35 ± 0.49 |
| CYGDAWSWEISMFCCVCRGF | 7.523 ± 0.042 |
| RQLAFFLIYPHGASVTYWAP | -0.956 ± 1.1 |
| IFRLELNTIIPPSQYNASAH | 4.57 ± 0.1 |
